{"source": "paper doi:10.1101/2025.05.15.654217", "target": "3×FLAG–SpaO^L-V5pBpa (Salmonella enterica serovar Typhimurium SL1344) (UniProt P40699)", "sequence (P40699 whole entry, looked up)": "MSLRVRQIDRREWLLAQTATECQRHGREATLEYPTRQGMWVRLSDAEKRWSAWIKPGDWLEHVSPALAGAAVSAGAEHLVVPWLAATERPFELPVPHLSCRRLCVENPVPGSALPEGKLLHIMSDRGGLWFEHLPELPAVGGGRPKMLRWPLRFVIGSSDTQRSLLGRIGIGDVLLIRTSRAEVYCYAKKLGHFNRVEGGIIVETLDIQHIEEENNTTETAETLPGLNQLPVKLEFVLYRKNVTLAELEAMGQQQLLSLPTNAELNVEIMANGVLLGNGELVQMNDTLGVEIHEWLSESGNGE", "assay": "cross-linking", "data": [{"substance": "M45-SpaO^short F34pBpa (natural protein)", "values": [{"measurement": "stoichiometry N (SpaO^short per SpaO^L)", "value": 2}]}]}
